Here are results for five substances from patent publication US20030113743.

Data set [1] relates to synthetic peptide, residues 210-236 of hK2 (peptide #1 of FIG. 16).
The subject of data set [2] is phK2^v217 (pro form of hK2 with valine at residue 217).
For data set [3], the system named is peptide #3 of FIG. 16, amino acid residues -7 to +7 of phK2.

Chain of synthetic peptide, residues 210-236 of hK2 (peptide #1 of FIG. 16) (chain, as listed by the source): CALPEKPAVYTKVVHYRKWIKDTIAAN

For “hK2^v217 (mature hK2 polypeptide having an alanine to valine substitution at amino acid position 217)”, the “peptide bond cleavage (RP-HPLC, N-terminal sequencing)” value in data set [1] is “trypsin-like cleavage at a 2:1 ratio over the chymotrypsin-like cleavage”. Moreover, in data set [2], the “conversion of pro to mature form (HIC-HPLC)” value is recorded as “no difference in the ratios of the two hK2 forms was detected even after 6 hours”. In the case of “phK2^v217 (pro form of hK2 with valine at residue 217)”, in data set [1], the “peptide bond cleavage (RP-HPLC, N-terminal sequencing)” value was “showed no amidolytic activity”. Regarding “prostate-specific antigen protein, hK3 (PSA)”, the “peptide bond cleavage (RP-HPLC, N-terminal sequencing)” value in data set [1] is “PSA cleaved the Y-R bond primarily”. Regarding trypsin, the “conversion of pro to mature form (HIC-HPLC, N-terminal sequencing)” value in data set [2] is recorded as “complete conversion of phK2^v217 to hK2^v217”.

“wild type mature hK2 (prostate-specific glandular kallikrein protein)”: the “peptide bond cleavage (RP-HPLC, N-terminal sequencing)” value in data set [1] is recorded as “its activity was exclusive for the trypsin-like site (R-K)”. In addition, the peptide bond cleavage result in data set [3] is listed as “hK2 was able to cleave this peptide releasing the propeptide region”. Also, the “conversion of pro to mature form (HIC-HPLC)” value in data set [2] is “at a rate about 30× slower than trypsin”.
